For this assay, the target named is T1, MAP2c-1-467 with N-terminal histidine tag (H6-MAP2c) (rat, UniProt P15146-3 1-467, RED-tris-NTA fluorescent label on the histidine tag).
T1 sequence: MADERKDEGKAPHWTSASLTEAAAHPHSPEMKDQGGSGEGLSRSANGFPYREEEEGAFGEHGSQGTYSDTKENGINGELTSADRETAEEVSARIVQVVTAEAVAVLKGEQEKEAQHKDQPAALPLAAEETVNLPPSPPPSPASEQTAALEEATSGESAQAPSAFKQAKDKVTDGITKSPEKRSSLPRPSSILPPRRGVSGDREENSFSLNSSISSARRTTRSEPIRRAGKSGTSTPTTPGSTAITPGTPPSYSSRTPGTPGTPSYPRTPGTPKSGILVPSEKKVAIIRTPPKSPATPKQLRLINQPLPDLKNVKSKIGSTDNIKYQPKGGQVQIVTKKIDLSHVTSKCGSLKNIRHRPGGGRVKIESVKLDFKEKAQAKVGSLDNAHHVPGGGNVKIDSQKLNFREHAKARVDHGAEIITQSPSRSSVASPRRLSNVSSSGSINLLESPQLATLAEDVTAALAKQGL
Briefly: MST.

B1: SH3 domain of Fyn fused to hexahistidine tag (Fyn-SH3) (domain or fragment)
chain: not shown
What is called Kd is a measure of binding affinity in units of concentration. A higher Kd goes with lower affinity. In turn, B1 gave a Kd of 22 ± 5 nM.

The record behind these values is PMC9520037 (The Journal of Biological Chemistry, 2022).
